In the assay the target is Human thyroid-stimulating hormone receptor (human) (UniProt P16473).
Chain of UniProt P16473 (P16473 21-764): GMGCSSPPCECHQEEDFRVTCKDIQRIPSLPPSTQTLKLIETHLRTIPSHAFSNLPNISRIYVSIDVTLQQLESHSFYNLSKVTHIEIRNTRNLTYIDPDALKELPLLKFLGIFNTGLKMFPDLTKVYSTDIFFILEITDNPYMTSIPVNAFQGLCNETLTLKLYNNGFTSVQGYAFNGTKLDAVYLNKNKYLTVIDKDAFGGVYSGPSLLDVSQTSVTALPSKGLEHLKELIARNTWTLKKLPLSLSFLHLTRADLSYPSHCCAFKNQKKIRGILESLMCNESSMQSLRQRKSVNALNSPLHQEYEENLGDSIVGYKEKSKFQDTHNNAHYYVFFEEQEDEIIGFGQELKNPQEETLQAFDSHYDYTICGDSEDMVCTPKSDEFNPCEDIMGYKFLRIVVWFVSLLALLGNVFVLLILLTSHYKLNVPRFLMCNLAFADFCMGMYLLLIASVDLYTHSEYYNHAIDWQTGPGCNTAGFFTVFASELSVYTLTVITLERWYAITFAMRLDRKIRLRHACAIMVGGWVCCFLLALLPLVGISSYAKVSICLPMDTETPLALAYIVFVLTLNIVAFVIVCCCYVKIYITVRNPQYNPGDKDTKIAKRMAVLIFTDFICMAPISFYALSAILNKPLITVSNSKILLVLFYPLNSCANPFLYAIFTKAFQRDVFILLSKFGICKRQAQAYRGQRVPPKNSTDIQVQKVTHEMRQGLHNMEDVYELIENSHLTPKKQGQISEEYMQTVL

“Recombinant human thyroid-stimulating hormone (from UniProt P01215 25-116; P01222 21-132) (ligand)” gave an EC50 of the NFAT-driven luciferase reporter (RLU) in HEK293-TSHR/NFAT-Luc cells seeded at 0.8 × 10^5 cells/mL, serially diluted rhTSH of 0.32.

For the origin of these results see PMC11901838.
